The target of one experiment is T1, human CD123-Fc (human, UniProt P26951 19-305, limits assumed).
T1 construct: Coupled to a CM5 sensor chip; also called soluble recombinant CD123; not shown: Fc part
T1 sequence (looked up): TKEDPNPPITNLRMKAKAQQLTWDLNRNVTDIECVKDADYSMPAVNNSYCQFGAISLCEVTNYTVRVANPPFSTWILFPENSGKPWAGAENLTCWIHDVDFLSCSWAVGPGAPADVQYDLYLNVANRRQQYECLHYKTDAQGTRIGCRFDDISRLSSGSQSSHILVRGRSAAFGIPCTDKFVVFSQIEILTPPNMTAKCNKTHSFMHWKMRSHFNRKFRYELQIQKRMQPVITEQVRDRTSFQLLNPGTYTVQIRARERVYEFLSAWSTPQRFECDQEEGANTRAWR
As to the kind of experiment: SPR, Biacore X100, human CD123-Fc on CM5 chip, 1:1 model; KD CD123 (first number of the cell). The method, then: Binding of different variants of the targeting module according to the invention was analyzed by SPR measurements using human CD123-Fc coupled to a CM5 sensor chip on a Biacore X100 device (FIG. 2). Targeting modules were purified monomer except for the targeting module according to SEQ ID No. 8. […] For data fitting and KD calculation a 1:1 binding model was applied.
(In general: SPR reads the build-up and loss of mass on a sensor chip optically.)

For experiment [1], the target named is T2, La epitope 5B9 (SEQ ID No. 28) fused to human Fc domain (human, also: fused to human Fc domain, order, isotype, linker not given here).
T2 construct: Coupled to a CM5 sensor chip; not shown: human Fc domain
T2 chain: KPLPEVTDEY
As to the kind of experiment: SPR, Biacore X100, La epitope 5B9-human Fc on CM5 chip; KD 5B9 (second number of the cell). As for the experimental part:
Furthermore, binding of different variants of the targeting module according to the invention was analyzed using the La epitope 5B9 (SEQ ID No. 28) fused to human Fc domain which was coupled to a CM5 sensor chip on a Biacore X100 device (FIG. 3). The targeting modules were purified monomers. The targeting modules were concentrated between 2.47 to 200 nM and measured in technical duplicates. For data fitting and KD calculation a two-state-reaction binding model was applied.

Experiment [2] has as its target T3, CD123 on CD123 positive AML cells (Oci-AML3, Molm-13, MV4-11, primary AML cells) (human, UniProt P26951 19-378).
T3 construct: whole, on cells; Endogenous CD123 on human AML cell lines; also called target antigen CD123
As to the kind of experiment: cellular binding assay per table caption, Molm-13 cells.

Experiment [3] has as its target T3, CD123 on CD123 positive AML cells …. As to the kind of experiment: flow cytometry on Molm-13 cells, anti-His-PE detection. Half-maximal binding from a four-parameter fit of gMFI. Unit taken from the concentration axis [M]. The method, then: Cellular binding of CD123-binding targeting modules (TM) was tested on CD123 positive target cell lines Oci-AML3 and Molm-13: A) SEQ ID No. 5 to Oci-AML3, B) SEQ ID No. 9 to Oci-AML3, C) SEQ ID No. 4 to Molm-13 and D) SEQ ID No. 6 to Molm-13. The affinity of TMs was analyzed by flow cytometry. The TMs were titrated on an AML cell lines and then detected by a mouse anti-His-tag antibody conjugated to phycoerythrin.
Different concentrations of R-TM123 were incubated with cells, washed and quantified. A dose-response curve was obtained when the geometric mean fluorescence (MFI) was plotted against the TM concentration.
(Flow cytometry measures light scatter and fluorescence of single cells or particles in a stream.)

The target is the same in experiment [4]. As to the kind of experiment: cellular binding assay per table caption, Oci-AML3 cells.

No end group written: not given here.

B1: targeting module according to SEQ ID No. 6 (bispecific antibody)
chain: EVQLQQSGPELVKPGASVKMSCKASGYTFTDYYMKWVKQSHGKSLEWIGDIIPSNGATFYNQKFKGKATLTVDRSSSTAYMHLNSLTSEDSAVYYCTRSHLLRASWFAYWGQGTLVTVSAASGGGGSGGGGSGGGGSDFVMTQSPSSLTVTAGEKVTMSCKSSQSLLNSGNQKNYLTWYLQKPGQPPKLLIYWASTRESGVPDRFTGSGSGTDFTLTISSVQAEDLAVYYCQNDYSYPYTFGGGTKLEIKAAARGDIVMTQSPDSLAVSLGERVTMNCKSSQSLLNSRTPKNYLAWYQQKPGQSPKLLIYWASTRKSGVPDRFSGSGSGTDFTLTISSVQAEDVAVYYCKQSYNLLTFGGGTKLEIKGGGGSGGGGSGASAAGGGGSGGGGSQVQLVESGAEVVKPGASVKLSCKASGYAFTHYYIYWIKQAPGQGLEWIGGVNPSNGGTHFNEKFKSRATLTVDTSISTAYMELSRLRSDDTAVYYCTRSEYDYGLGFAYWGQGTLVTVSSGGGGSHHHHHHHH
notes: also called muCD123 + rs5B9-VL-VH
As usually defined, the Kd is the equilibrium constant for the complex coming apart. What is called EC50 is the midpoint of the concentration-response curve. Higher therefore signals a less potent agent. Consider B1, for which the dissociation constant (Kd) came out at 44 pM in the experiment with human CD123-Fc, 2100 pM in experiment [1] and 7690 pM in experiment [3]. In addition, the EC50 came out at 1.7 pM in experiment [2] and 6.2 pM in experiment [4].
